Experiment in all cases: ITC
In general terms: Isothermal titration calorimetry measures the heat released or taken up as one component is titrated into another.

Assay [1] has as its target T1, ecdTDR F281 alanine mutant (Arabidopsis thaliana, UniProt Q9FII5 30-642, alanine substitution of F281).
T1 sequence: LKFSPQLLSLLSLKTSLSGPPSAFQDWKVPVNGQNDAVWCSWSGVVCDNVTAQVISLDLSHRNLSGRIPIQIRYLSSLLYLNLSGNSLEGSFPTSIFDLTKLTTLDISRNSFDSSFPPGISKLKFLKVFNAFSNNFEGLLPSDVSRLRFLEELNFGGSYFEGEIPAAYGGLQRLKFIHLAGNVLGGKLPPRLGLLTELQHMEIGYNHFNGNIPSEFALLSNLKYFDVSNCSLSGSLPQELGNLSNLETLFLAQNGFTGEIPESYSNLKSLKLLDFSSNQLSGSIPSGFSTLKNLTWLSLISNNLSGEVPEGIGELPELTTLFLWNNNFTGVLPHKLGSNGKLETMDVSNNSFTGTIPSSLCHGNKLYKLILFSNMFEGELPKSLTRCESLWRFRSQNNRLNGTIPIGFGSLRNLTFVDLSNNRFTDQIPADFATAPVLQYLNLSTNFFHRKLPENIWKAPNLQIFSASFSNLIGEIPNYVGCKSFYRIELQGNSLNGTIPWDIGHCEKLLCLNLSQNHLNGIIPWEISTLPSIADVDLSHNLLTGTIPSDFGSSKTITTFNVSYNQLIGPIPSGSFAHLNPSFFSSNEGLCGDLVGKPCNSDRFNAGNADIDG

For assay [2], the target named is T2, ecdTDR F279/F281 double alanine mutant (Arabidopsis thaliana, UniProt Q9FII5 30-642, F279 to alanine | F281 to alanine).
T2 sequence: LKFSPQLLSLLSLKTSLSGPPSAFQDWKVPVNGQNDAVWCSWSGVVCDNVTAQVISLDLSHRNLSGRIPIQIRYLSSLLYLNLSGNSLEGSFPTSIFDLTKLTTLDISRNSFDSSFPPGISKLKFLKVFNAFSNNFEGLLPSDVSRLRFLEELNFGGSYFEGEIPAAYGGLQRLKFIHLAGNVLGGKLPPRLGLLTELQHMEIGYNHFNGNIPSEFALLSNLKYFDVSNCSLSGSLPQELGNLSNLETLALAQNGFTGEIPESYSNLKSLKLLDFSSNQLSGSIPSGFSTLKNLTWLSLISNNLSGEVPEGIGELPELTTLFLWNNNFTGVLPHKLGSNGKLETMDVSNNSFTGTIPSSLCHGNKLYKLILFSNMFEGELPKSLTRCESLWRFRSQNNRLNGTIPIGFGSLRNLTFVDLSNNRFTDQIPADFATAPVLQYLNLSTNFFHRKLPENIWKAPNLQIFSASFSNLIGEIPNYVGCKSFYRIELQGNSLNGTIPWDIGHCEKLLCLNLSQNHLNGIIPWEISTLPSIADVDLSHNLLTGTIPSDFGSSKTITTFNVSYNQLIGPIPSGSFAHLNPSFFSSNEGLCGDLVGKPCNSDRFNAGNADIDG

Assay [3] addresses T3, TDR-R421A/R423A double mutant (ecdTDR) (Arabidopsis thaliana, UniProt Q9FII5 30-642, R421A | R423A).
T3 sequence: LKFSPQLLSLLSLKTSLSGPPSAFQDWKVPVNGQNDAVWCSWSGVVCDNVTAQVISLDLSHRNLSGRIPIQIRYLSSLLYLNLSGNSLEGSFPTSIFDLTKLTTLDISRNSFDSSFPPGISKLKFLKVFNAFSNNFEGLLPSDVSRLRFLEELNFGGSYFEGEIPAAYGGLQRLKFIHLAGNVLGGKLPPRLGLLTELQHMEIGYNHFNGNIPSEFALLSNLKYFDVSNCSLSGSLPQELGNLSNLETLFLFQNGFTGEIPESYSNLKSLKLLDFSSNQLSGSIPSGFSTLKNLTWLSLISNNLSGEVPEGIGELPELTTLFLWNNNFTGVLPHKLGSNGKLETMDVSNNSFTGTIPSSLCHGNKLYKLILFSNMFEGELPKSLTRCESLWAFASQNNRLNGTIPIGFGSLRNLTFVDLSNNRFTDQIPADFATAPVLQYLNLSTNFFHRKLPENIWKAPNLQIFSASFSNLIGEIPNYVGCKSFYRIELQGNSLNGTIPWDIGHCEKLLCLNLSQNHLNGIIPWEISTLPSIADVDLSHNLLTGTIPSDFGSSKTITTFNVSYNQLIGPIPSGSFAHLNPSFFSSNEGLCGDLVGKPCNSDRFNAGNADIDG

A further assay concerns the target T4, ecdTDR S305A mutant (Arabidopsis thaliana, UniProt Q9FII5 30-642, S305A).
T4 sequence: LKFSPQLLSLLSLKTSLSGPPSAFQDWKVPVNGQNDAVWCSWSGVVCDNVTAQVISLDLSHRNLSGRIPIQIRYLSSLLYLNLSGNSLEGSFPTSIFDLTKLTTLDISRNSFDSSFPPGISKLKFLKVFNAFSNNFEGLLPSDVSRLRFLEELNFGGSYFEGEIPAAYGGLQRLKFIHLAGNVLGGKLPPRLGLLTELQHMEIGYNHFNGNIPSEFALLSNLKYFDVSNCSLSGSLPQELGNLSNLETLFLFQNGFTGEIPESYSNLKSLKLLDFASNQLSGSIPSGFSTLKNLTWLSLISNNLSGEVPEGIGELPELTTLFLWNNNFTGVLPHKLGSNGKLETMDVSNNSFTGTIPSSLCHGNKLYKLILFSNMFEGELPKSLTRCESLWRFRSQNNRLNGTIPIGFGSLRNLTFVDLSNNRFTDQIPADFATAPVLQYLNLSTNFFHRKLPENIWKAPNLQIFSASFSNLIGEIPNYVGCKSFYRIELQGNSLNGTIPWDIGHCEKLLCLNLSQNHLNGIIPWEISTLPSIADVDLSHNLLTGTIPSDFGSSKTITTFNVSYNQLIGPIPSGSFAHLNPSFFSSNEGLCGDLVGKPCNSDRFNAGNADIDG

Square brackets hold non-standard residues; d marks the D form. Ends that are not written are not given here. Hyp = O=C(O)[C@@H]1C[C@@H](O)CN1

B1: Tracheary Element Differentiation Inhibitory Factor (TDIF) peptide (peptide)
peptide: HEV[Hyp]SG[Hyp]NPISN
notes: TDIF, the 12-residue CLE peptide processed from CLE41 and CLE44 of A. thaliana; printed as HEV(Hyp)SG(Hyp)NPISN; numbers count on: the 12-residue peptide; CLE44 encodes the same peptide; also called wild type TDIF; wtTDIF; source: synthetic peptide (peptide 2.0)
As usually defined, the Kd is the free concentration of one partner at which half of the binding sites on the other are occupied at equilibrium, for simple one-to-one binding. High values mean weaker binding, low ones tighter binding. Take B1: the Kd was 787 nM in assay [1], 887 nM in assay [2], 306 nM in assay [3] and 455 nM with ecdTDR S305A mutant.

These data come from paper PMC5383425, “Differential CLE peptide perception by plant receptors implicated from structural and functional analyses of TDIF-TDR interactions” (PLoS ONE, 2017).
